The record followed here is article PMC11637481, “A third dose of inactivated vaccine augments the potency, breadth, and duration of anamnestic responses against SARS-CoV-2” (Protein & Cell, 2024).

To fix the notation:
B1: XGv026 (antibody, V domains shown)
VH: EVQLVESGGGVIQPGGSLRLSCAASEIIVSSNYMNWVRQAPGKGLEWVSVIYPGGSSFYADSVKGRFTISRDNSKNTLYLQMNSLRVEDTAVYYCARDSPHRPGTIWGQGTLVVVSS
VL: DIQMTQSPSSLSASVGDRVTITCRASQDINNYLNWYQQKPGKAPKLLIYDAFTLEAGVPSRFSGARFGTDFTFTISSLQPEDIATYYCHQCDNLPCTFGGGTKVEIK
B2: XGv016 (antibody, V domains shown)
VH: QVQLVQSGTEVRKPGASVTVSCKASGYTFTTYHMHWVRRAPGQGLEWMGIIDPGTGGASYPQKFRGRVTLTRDTSTNTVYMELSSLRFQDTAIYYCARAEGSSWLGWFDPWGQGTLVTVSS
VL: QSVLTQPPSASGTPGQRVSISCSGSSSNIGTNYVYWYQQLPGTAPKLLIYKNNQRPSGVPDRFSGSKSGTSASLAISGLRSEDEADYFCASWDNGLSGSGWVFGGGTKLTV
B3: XGv042 (antibody, V domains shown)
VH: QITLKESGPTLVKPTQTLTLTCTFSGLSMTTSGVGVGWIRQPPGKALEWLALIYWDDDKRYSPFLKSRLTITKDTSKNQVVLTMTNMDPADTGTYFCAHHTIPSIFDHWGQGTLVTVSS
VL: QSALTQPASVSGSPGQSITISCTATSSDVGVYNYVSWYQQYPGKAPRLIIFEVSNRPSGVSSRFSGSKSGYTASLTISGLQTDDEADYYCSSYTTTSTVFGGGTKLTVL
B4: XGv013 (antibody, V domains shown)
VH: EVQLVESGGGLVQPGGSLRLSCAASGITVSSNYMTWVRQAPGKGLEWVSVIYAGGSTFYADSVKGRFTISRDNSKNTLYLQMNSLRVEDTAVYYCARDLVDYGMDVWGQGTTVTVSS
VL: DIQLTQSPSFLSASVGDRVTITCRASQGIASYLAWYQQKPGKAPKLLIYAASTLQSGVPTRFSGSGSGTEFTLTIRSLQPEDSATYYCQHPSGHPPTFGGGTKVEI
B5: XGv018 (antibody, V domains shown)
VH: QVQLVESGGGVVQPGRSLRLSCAASGFTFSTYGMHWVRQAPGKGLEWVAVILNDGSGKLYADSVKGRFTISRDNSKNTLYLQMSSLRAEDTAVYFCARDQGELVTYFDYWGQGTLVTVSS
VL: DIQMTQSPSSLSASVGDRVTITCRASQSISRYLNWYQHKPGKAPKLLIYTTSNLQSGVPSRFSGSGSGTDFTLTISSLHPEDFATYYCQQSYNTPSWTFGQGTKVEIK
B6: XGv030 (antibody, V domains shown)
VH: EVQLVESGGGLVQPGGSLRLSCAASGFSFSTYSLNWVRQAPGKGLEWVSYISSSSITIYYAHSVKGRFTISRDDAKNSLYLQVNNLRDEDTAVYYCARVLGFSDYVWGSYQRGLYGMDVWGQGTTVSVSS
VL: QSALTQPASVSGSPGQSIAISCTGTSSDVGGYDFVSWYQQHPGKAPKLLIYDVTNRPSGISNRFSGSKSGNTASLTISGLQTEDEADYYCSSFTSSNTLPFVFGTGTTVTVL
B7: XGv038 (antibody, V domains shown)
VH: QVQLVESGGGVVQPGRSLRLSCAASGFTFNNYGIHWVRQAPGKGLEWVAVIWYDGTNKYYADSVKGRFTISRDNSKNTVYLQMNSLRAEDTAVYYCARDYEITMAAPDYWGQGTLVTVSS
VL: DVVMTQSPLSLPVTLEQPASISCRSSQSLVSSDGNTYLNWFQQRPGQSPRRLIYKVSNRDSGVPDRFSGSGSGTDFTLKINRVEAEDVGIYYCMQGSHWPPTFGGGTKVEIK

The assay addresses T1, SARS-CoV-2 receptor-binding domain (RBD), wild type (SARS-CoV-2, wild type (GenBank MN908947), UniProt P0DTC2).
T1 construct: also called WT
The experiment in a line: BLI. The conditions noted are these: both partners purified.
For B1, binding was put at a Kd of 0.23 nM.

On to B2, for which the Kd was 0.16 nM.

B3 showed a dissociation constant (Kd) of 0.16 nM.

As to B4, binding was put at a Kd of 0.26 nM.

B5 showed an equilibrium dissociation constant (Kd) of 0.21 nM.

As to B6, the Kd is 1.3 nM.

The molecule B7 displayed a dissociation constant (Kd) of 0.43 nM.

In general, Kd refers to the free concentration of one partner at which half of the binding sites on the other are occupied at equilibrium, for simple one-to-one binding. Read a high Kd as lower affinity.
